Source: PMC10963267 (2023)
Where a chain is given by its changes, count along the chain named. Names may count otherwise. Where two headings read alike, the source gives them in different places. Each block holds one binder with its values, some of them ahead of it.

Legend:
IL70101 = experiment: BLI
IL70099 = experiment: BLI
IL70096 = experiment: BLI
IL70110 = experiment: BLI
IL70095 = experiment: BLI
IL70098 = experiment: BLI
IL70106 = experiment: BLI
IL70104 = experiment: BLI
IL70107 = experiment: BLI
IL70109 = experiment: BLI
IL70094 = experiment: BLI
IL70092 = experiment: BLI
IL70108 = experiment: BLI
IL70103 = experiment: BLI
IL70097 = experiment: BLI
IL70093 = experiment: BLI
[1] = target: T1, hen egg lysozyme (HEL), biotinylated (hen, UniProt P00698 19-147, biotin); experiment: deep screening KDapp
[2] = target: T1, hen egg lysozyme (HEL), biotinylated; experiment: BLI
[3] = target: T2, human epidermal growth factor receptor 2 (HER2), biotinylated (human, UniProt P04626 23-652, biotin); experiment: BLI
[4] = target: T2, human epidermal growth factor receptor …
[5] = target: T2, human epidermal growth factor receptor …; experiment: SPR
[6] = target: T2, human epidermal growth factor receptor …; experiment: SPR; remark: listed apart in the source

T1 sequence (P00698 19-147): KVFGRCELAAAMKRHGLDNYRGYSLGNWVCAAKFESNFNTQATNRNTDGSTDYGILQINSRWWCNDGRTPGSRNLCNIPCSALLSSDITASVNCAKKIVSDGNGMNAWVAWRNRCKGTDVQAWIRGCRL

B1: human interleukin-7 (huIL-7), biotinylated (ligand)
chain: DCDIEGKDGKQYESVLMVSIDQLLDSMKEIGSNCLNNEFNFFKRHICDANKEGMFLFRAARKLRQFLKMNSTGDFDLHLLKVSEGTTILLNCTGQVKGRKPAALGEAQPTKSLEENKSLKEQKKLNDLCFLKRLLQEIKTCWNKILMGTKEH
modifications: biotin
- Kd (IL70101): 1.14 nM
- Kd (IL70099): 1.53 nM
- Kd (IL70096): 0.708 nM
- Kd (IL70110): 0.824 nM
- Kd (IL70095): 0.429 nM
- Kd (IL70098): 0.52 nM
- Kd (IL70106): 2.92 nM
- Kd (IL70104): 2.64 nM
- Kd (IL70107): 2.94 nM
- Kd (IL70109): 1.48 nM
- Kd (IL70094): 0.754 nM
- Kd (IL70092): 0.909 nM
- Kd (IL70108): 2.55 nM
- Kd (IL70103): 0.657 nM
- Kd (IL70097): 1.79 nM
- Kd (IL70093): 0.525 nM

B2: anti-HEL nanobody M5, ribosome-displayed on the flow cell (VHH)
VHH: QVQLQESGGGLVQAGGSLRLSCAASGSIFYYTDMGWYRQAPGKEREFVASIGYGGITYYADSVKGRFTISRDNAKNTVYLQMNSLKPEDTAVYYCAVQRSFESYGYWGHVYWGQGTQVTVSS
- Kd [1]: 106 nM

B5: anti-HER2 Fab HER20006 (Fab, V domains shown)
VH: QVQLVQSGAEVKKPGESLKISCKGSGYSFTSYWIAWVRQMPGKGLEYMGLIYPGDSDTKYSPSFQGQVTISVDKSVSTAYLQWSSLKPSDSAVYFCARHDVGWCTSSNCAKWPEYFQHWGQGTLVTVSS
VL: QSVLTQPPSVSAAPGQKVTISCSGSSSNIGNNYVSWYQQLPGTAPKLLIYGHTNRPAGVPDRFSGSKSGTSASLAISGFRSEDEADYYCASWDYTLSGWVFGGGTKLTVL
- Kd [3]: 0.85 nM

B6: anti-HER2 scFv G98A, ribosome-displayed on the flow cell (scFv, V domains shown)
VH: B5 VH with G102A, W103Y, T105S
VL: B5 VL
- Kd [4]: 24 nM
- Kd [5]: 320 nM

B7: anti-HER2 Fab G98A (Fab, V domains shown)
VH: B5 VH with G102A, W103Y, T105S
VL: B5 VL
- Kd [6]: 320 nM

B8: anti-HEL nanobody C2 (VHH)
VHH: QVQLQESGGGLVQAGGSLRLSCAASGNISADASMGWYRQAPGKEREFVAAIARGATTYYADSVKGRFTISRDNAKNTVYLQMNSLKPEDTAVYYCAVDQYDVTKRYIGHIYWGQGTQVTVSS
- Kd [2]: 59.8 nM
- Kd [1]: 11900 nM

Results, then the binder that gave them:

- Kd [1]: 63.6 nM
B3: anti-HEL nanobody M6, ribosome-displayed on the flow cell (VHH)
VHH: B2 VHH with F29S, Y30R, Y31D, T32P, G52S, Y53G, G55T, I56T

- Kd [2]: 67.4 nM
- Kd [1]: 11900 nM
B4: anti-HEL nanobody C1 (VHH)
VHH: QVQLQESGGGLVQAGGSLRLSCAASGSIFWAGYMGWYRQAPGKEREFVAAIDYGANTYYADSVKGRFTISRDNAKNTVYLQMNSLKPEDTAVYYCAVDRQPYYRRDNSHLYWGQGTQVTVSS

- Kd [1]: 64.4 nM
B9: anti-HEL nanobody M15, ribosome-displayed on the flow cell (VHH)
VHH: QVQLQESGGGLVQAGGSLRLSCAASGTISSQKLMGWYRQAPGKEREFVAAINDGATTNYADSVKGRFTISRDNAKNTVYLQMNSLKPEDTAVYYCAAYYDVRGYYWGTFGYWGQGTQVTVSS
